Publication PMC9346500 (EMBO Reports, 2022)
Changes are numbered by the printed parent chain. Numbers in names are those of the source. Values belong to the binder of their own block, whether it stands above or below them.

Tests used:
[1] = target: T1, M1-linked tetraubiquitin (M1-Ub4) (UniProt P0CG48 1-76; P0CG48 1-76; P0CG48 1-76; P0CG48 1-76); assay: NMR titration
[2] = target: HOTag6-G10-Ub (designed tetrameric ubiquitin construct); assay: NMR titration
[3] = target: T1, M1-linked tetraubiquitin (M1-Ub4); assay: fluorescence polarisation
ubiquitin (Ub) = ubiquitin (Ub) (UniProt P0CG48 1-76); assay: fluorescence polarisation
[4] = target: HOTag6-G10-Ub (designed tetrameric ubiquitin construct); assay: fluorescence polarisation

T1 sequence (P0CG48 1-304, one chain of several): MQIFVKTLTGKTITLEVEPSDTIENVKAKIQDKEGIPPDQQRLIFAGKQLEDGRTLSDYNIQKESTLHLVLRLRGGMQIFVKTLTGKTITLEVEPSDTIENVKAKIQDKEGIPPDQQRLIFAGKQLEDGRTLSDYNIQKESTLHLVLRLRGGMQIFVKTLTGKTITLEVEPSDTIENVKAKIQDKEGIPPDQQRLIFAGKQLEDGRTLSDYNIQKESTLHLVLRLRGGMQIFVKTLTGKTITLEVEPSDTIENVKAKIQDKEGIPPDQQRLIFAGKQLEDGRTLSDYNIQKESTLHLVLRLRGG

Kd [1]: 12.8 µM
Kd [2]: 8.8 µM
B1: UBQLN2 450–624 (domain or fragment, UniProt Q9UHD9 450-624, looked up)
chain: RAMQALMQIQQGLQTLATEAPGLIPSFTPGVGVGVLGTAIGPVGPVTPIGPIGPIVPFTPIGPIGPIGPTGPAAPPGSTGSGGPTGPTVSSAAPSETTSPTSESGPNQQFIQQMVQALAGANAPQLPNPEVRFQQQLEQLNAMGFLNREANLQALIATGGDINAAIERLLGSQPS

Kd [3]: 5.1 µM
Kd (ubiquitin (Ub)): 3.4 µM
Kd [4]: 7 µM
B2: fluorescently-labeled UBQLN2 450–624 (S624C, Alexa Fluor 488) (domain or fragment, UniProt Q9UHD9 450-624, looked up)
chain: B1 chain with S175C
modifications: Alexa Fluor 488 C5 Maleimide on the cysteine of S624C
